Source: the supplement of paper PMC9112550, “Optimization of the antimicrobial peptide Bac7 by deep mutational scanning” (BMC Biology, 2022)

tested on: Escherichia coli TOP10; assay: shrunken log2 fold change of peptide-encoding DNA abundance (4.5 h post-induction vs induction); higher = less antimicrobial activity (less host growth inhibition); settings: time post-induction: 4.5 h; library: site-saturation at positions 5, 18, 19, 20
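Further: peptides expressed intracellularly from a pBAD plasmid library in pooled LB shake-flask culture, induced with 0.3% L-arabinose, DNA abundance read by NGS, three biological replicates, DESeq2 with apeglm shrinkage.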

Row | Sequence | shrunken log2 fold change
1 | RRIRERPPRLPRPRPRPPCPPRP | 1.27
2 | RRIRMRPPRLPRPRPRPKVRPRP | 0.00262
3 | RRIRWRPPRLPRPRPRPYLPPRP | -0.826
4 | RRIRYRPPRLPRPRPRPGVCPRP | -0.0493
5 | RRIRTRPPRLPRPRPRPNRKPRP | -0.104
6 | RRIRFRPPRLPRPRPRPYHPPRP | -0.58
7 | RRIRSRPPRLPRPRPRPALRPRP | 0.169
8 | RRIRYRPPRLPRPRPRPSELPRP | -0.0343
9 | RRIRKRPPRLPRPRPRPVSWPRP | 0.821
10 | RRIRYRPPRLPRPRPRPQEVPRP | 0.013
11 | RRIRCRPPRLPRPRPRPTLGPRP | 0.168
12 | RRIRHRPPRLPRPRPRPCAPPRP | 0.0642
13 | RRIRFRPPRLPRPRPRPMRQPRP | 0.0953
14 | RRIRMRPPRLPRPRPRPVFYPRP | -0.0165
15 | RRIRIRPPRLPRPRPRPMNIPRP | -0.0512
16 | RRIRARPPRLPRPRPRPASEPRP | 0.285
17 | RRIRPRPPRLPRPRPRPAVHPRP | 0.0984
18 | RRIRMRPPRLPRPRPRPNILPRP | 0.057
19 | RRIRRRPPRLPRPRPRPCVEPRP | -0.0155
20 | RRIRERPPRLPRPRPRPFRCPRP | 0.00668
21 | RRIRGRPPRLPRPRPRPVYIPRP | -0.194
22 | RRIRCRPPRLPRPRPRPIHDPRP | -0.264
23 | RRIRIRPPRLPRPRPRPSDNPRP | -0.421
24 | RRIRSRPPRLPRPRPRPADPPRP | 0.0724
25 | RRIRKRPPRLPRPRPRPWVFPRP | 0.0817

Row | Sequence | shrunken log2 fold change
26 | RRIRKRPPRLPRPRPRPLKHPRP | 0.0711
27 | RRIRVRPPRLPRPRPRPDNEPRP | -0.185
28 | RRIRNRPPRLPRPRPRPGKHPRP | -0.0999
29 | RRIRGRPPRLPRPRPRPRLRPRP | 0.87
30 | RRIRVRPPRLPRPRPRPMWWPRP | -0.0322
31 | RRIRWRPPRLPRPRPRPHKDPRP | -0.115
32 | RRIRNRPPRLPRPRPRPGSGPRP | 0.179
33 | RRIRCRPPRLPRPRPRPCWTPRP | -0.223
34 | RRIRKRPPRLPRPRPRPPHTPRP | 0.534
35 | RRIRARPPRLPRPRPRPDDEPRP | 1.43
36 | RRIRKRPPRLPRPRPRPCECPRP | 0.62
37 | RRIRMRPPRLPRPRPRPTLEPRP | 0.259
38 | RRIRVRPPRLPRPRPRPYLQPRP | -0.946
39 | RRIRARPPRLPRPRPRPEQHPRP | 0.562
40 | RRIRSRPPRLPRPRPRPTYTPRP | -0.24
41 | RRIRHRPPRLPRPRPRPVPCPRP | 0.337
42 | RRIRLRPPRLPRPRPRPHYQPRP | -0.361
43 | RRIRIRPPRLPRPRPRPCSPPRP | -0.271
44 | RRIRHRPPRLPRPRPRPHHQPRP | -0.364
45 | RRIRWRPPRLPRPRPRPRHWPRP | 0.0523
46 | RRIRDRPPRLPRPRPRPHGVPRP | -0.00965
47 | RRIRYRPPRLPRPRPRPETPPRP | 0.156
48 | RRIRPRPPRLPRPRPRPCRCPRP | 0.00981
49 | RRIRGRPPRLPRPRPRPPAFPRP | 1.09
50 | RRIRKRPPRLPRPRPRPQGPPRP | 0.053

Row | Sequence | shrunken log2 fold change
51 | RRIRSRPPRLPRPRPRPGIIPRP | -0.454
52 | RRIRWRPPRLPRPRPRPATAPRP | 0.983
53 | RRIRCRPPRLPRPRPRPRHIPRP | -0.28
54 | RRIRSRPPRLPRPRPRPWHLPRP | -0.273
55 | RRIRFRPPRLPRPRPRPGWGPRP | 0.076
56 | RRIRWRPPRLPRPRPRPCPNPRP | -0.184
57 | RRIRTRPPRLPRPRPRPWAPPRP | 0.154
58 | RRIRQRPPRLPRPRPRPFQSPRP | -0.0102
59 | RRIRQRPPRLPRPRPRPKCEPRP | 0.0276
60 | RRIRKRPPRLPRPRPRPGLHPRP | 0.0334
61 | RRIRYRPPRLPRPRPRPMLEPRP | 0.0653
62 | RRIRTRPPRLPRPRPRPWYYPRP | -0.117
63 | RRIRSRPPRLPRPRPRPWFEPRP | -0.0139
64 | RRIRERPPRLPRPRPRPSAGPRP | -0.118
65 | RRIRCRPPRLPRPRPRPFFDPRP | -0.199
66 | RRIRVRPPRLPRPRPRPQIHPRP | -1.01
67 | RRIRKRPPRLPRPRPRPVSKPRP | 0.128
68 | RRIRNRPPRLPRPRPRPLCCPRP | -0.371
69 | RRIRVRPPRLPRPRPRPEWIPRP | -0.0835
70 | RRIRLRPPRLPRPRPRPPECPRP | -0.29
71 | RRIRNRPPRLPRPRPRPQRGPRP | 0.237
72 | RRIRTRPPRLPRPRPRPLVDPRP | -0.143
73 | RRIRERPPRLPRPRPRPHMTPRP | 0.0464
74 | RRIRNRPPRLPRPRPRPWMQPRP | -0.218
75 | RRIRVRPPRLPRPRPRPAECPRP | -0.0646

Row | Sequence | shrunken log2 fold change
76 | RRIRCRPPRLPRPRPRPGVCPRP | 0.117
77 | RRIRWRPPRLPRPRPRPQEDPRP | -0.0221
78 | RRIRTRPPRLPRPRPRPREAPRP | 0.388
79 | RRIRARPPRLPRPRPRPQVTPRP | 0.356
80 | RRIRYRPPRLPRPRPRPEFEPRP | -0.00195
81 | RRIRRRPPRLPRPRPRPMNRPRP | -0.321
82 | RRIRTRPPRLPRPRPRPERSPRP | 0.104
83 | RRIRYRPPRLPRPRPRPGHEPRP | -0.18
84 | RRIRERPPRLPRPRPRPFKMPRP | -0.559
85 | RRIRMRPPRLPRPRPRPALPPRP | 0.363
86 | RRIRIRPPRLPRPRPRPNETPRP | -0.0216
87 | RRIRQRPPRLPRPRPRPVDYPRP | 0.0237
88 | RRIRARPPRLPRPRPRPKIAPRP | 0.177
89 | RRIRYRPPRLPRPRPRPNECPRP | 0.0256
90 | RRIRYRPPRLPRPRPRPEFRPRP | -0.0207
91 | RRIRVRPPRLPRPRPRPFWLPRP | 0.234
92 | RRIRVRPPRLPRPRPRPVHRPRP | 0.164
93 | RRIRLRPPRLPRPRPRPIQYPRP | 0.147
94 | RRIRLRPPRLPRPRPRPIVQPRP | -1.06
95 | RRIRERPPRLPRPRPRPNHKPRP | -0.823
96 | RRIRVRPPRLPRPRPRPETYPRP | -0.316
97 | RRIRGRPPRLPRPRPRPAMRPRP | 1.17
98 | RRIRNRPPRLPRPRPRPRHTPRP | -0.096
99 | RRIRIRPPRLPRPRPRPEIYPRP | -4.67e-05
100 | RRIRRRPPRLPRPRPRPPCYPRP | 0.473

Row | Sequence | shrunken log2 fold change
101 | RRIRIRPPRLPRPRPRPQNSPRP | -0.595
102 | RRIRCRPPRLPRPRPRPMPQPRP | 0.202
103 | RRIRARPPRLPRPRPRPWKVPRP | -0.279
104 | RRIRCRPPRLPRPRPRPRYIPRP | -0.035
105 | RRIRDRPPRLPRPRPRPCWFPRP | -0.0292
106 | RRIRGRPPRLPRPRPRPMVWPRP | 0.156
107 | RRIRRRPPRLPRPRPRPYGNPRP | -0.219
108 | RRIRSRPPRLPRPRPRPAVTPRP | 0.293
109 | RRIRGRPPRLPRPRPRPDQKPRP | 0.0127
110 | RRIRQRPPRLPRPRPRPGAWPRP | 0.256
111 | RRIRVRPPRLPRPRPRPTFNPRP | 0.127
112 | RRIRDRPPRLPRPRPRPCSYPRP | -0.138
113 | RRIRARPPRLPRPRPRPMAKPRP | 0.216
114 | RRIRCRPPRLPRPRPRPIFAPRP | 0.373
115 | RRIRHRPPRLPRPRPRPESSPRP | 0.087
116 | RRIRRRPPRLPRPRPRPVPSPRP | 0.488
117 | RRIRRRPPRLPRPRPRPWHDPRP | 0.0389
118 | RRIRMRPPRLPRPRPRPHQLPRP | -0.0373
119 | RRIRGRPPRLPRPRPRPLPEPRP | 0.884
120 | RRIRPRPPRLPRPRPRPEFAPRP | 0.602
121 | RRIRIRPPRLPRPRPRPCQIPRP | -0.0429
122 | RRIRQRPPRLPRPRPRPKQEPRP | -0.0419
123 | RRIRCRPPRLPRPRPRPDLVPRP | -0.0994
124 | RRIRLRPPRLPRPRPRPARFPRP | 0.0674
125 | RRIRHRPPRLPRPRPRPGYSPRP | 0.0976

Row | Sequence | shrunken log2 fold change
126 | RRIRRRPPRLPRPRPRPDEVPRP | 0.61
127 | RRIRLRPPRLPRPRPRPQNRPRP | -0.231
128 | RRIRLRPPRLPRPRPRPGDIPRP | -0.385
129 | RRIRPRPPRLPRPRPRPFVNPRP | -0.196
130 | RRIRVRPPRLPRPRPRPSGGPRP | 0.104
131 | RRIRARPPRLPRPRPRPEAVPRP | 1.59
132 | RRIRQRPPRLPRPRPRPLGWPRP | 0.8
133 | RRIRGRPPRLPRPRPRPLQVPRP | 0.458
134 | RRIRERPPRLPRPRPRPWVYPRP | -0.157
135 | RRIRRRPPRLPRPRPRPYAGPRP | -0.137
136 | RRIRERPPRLPRPRPRPLIRPRP | -0.0588
137 | RRIRVRPPRLPRPRPRPHDDPRP | -0.162
138 | RRIRHRPPRLPRPRPRPFFTPRP | -0.231
139 | RRIRWRPPRLPRPRPRPYAGPRP | 0.0399
140 | RRIRVRPPRLPRPRPRPSQTPRP | 0.112
141 | RRIRARPPRLPRPRPRPVYRPRP | 0.144
142 | RRIRPRPPRLPRPRPRPNPKPRP | 0.0202
143 | RRIRQRPPRLPRPRPRPIGNPRP | 0.0843
144 | RRIRNRPPRLPRPRPRPDWCPRP | 0.0226
145 | RRIRWRPPRLPRPRPRPASCPRP | 0.241
146 | RRIRYRPPRLPRPRPRPFPQPRP | -0.137
147 | RRIRERPPRLPRPRPRPGMFPRP | -0.837
148 | RRIRRRPPRLPRPRPRPHSHPRP | -0.0882
149 | RRIRVRPPRLPRPRPRPGEMPRP | 0.329
150 | RRIRTRPPRLPRPRPRPRWCPRP | 0.109
